Here are results for one substance from publication PMC5758567.

In the assay the target is Rod photoreceptor cGMP phosphodiesterase 6 (PDE6) (bovine (endogenous in rod outer segments)) (UniProt P11541).

Sequence of Prenyl-binding protein (PrBP/δ) (Q95142 whole entry, stated change not applied): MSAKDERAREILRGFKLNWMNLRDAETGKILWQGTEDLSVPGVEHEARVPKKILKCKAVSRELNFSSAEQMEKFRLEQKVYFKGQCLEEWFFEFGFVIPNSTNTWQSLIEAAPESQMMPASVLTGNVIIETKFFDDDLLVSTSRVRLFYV

Regarding “Prenyl-binding protein (PrBP/δ) (from UniProt Q95142 1-150) (natural protein)”, the Gα*-induced PDE6 activity (50 nM PDE6, 10 µM disc membranes, 1 µM Gα*) against PrBP/δ concentration; fit with two identical PrBP/δ binding sites on soluble PDE6 worked out at 0.07 µM.
